Measured values taken from patent publication US20240026017A1 (Kyowa Kirin, published 2024).

What was measured:
[1] = target: T1, NC3-mCCR1 (chimeric receptor in which positions 1 to 31 of mouse CCR1 were substituted with the corresponding … (human; mouse, UniProt P51677 1-31); test: flow cytometry on CHO-S-NC3-mCCR1 cells, hybridoma culture supernatant diluted 10-fold
T1 construct: expressed on CHO-S cells; End 355 from the stated total length of CCR1; also called CHO-S-NC3-mCCR1 (expressing cells)
T1 sequence: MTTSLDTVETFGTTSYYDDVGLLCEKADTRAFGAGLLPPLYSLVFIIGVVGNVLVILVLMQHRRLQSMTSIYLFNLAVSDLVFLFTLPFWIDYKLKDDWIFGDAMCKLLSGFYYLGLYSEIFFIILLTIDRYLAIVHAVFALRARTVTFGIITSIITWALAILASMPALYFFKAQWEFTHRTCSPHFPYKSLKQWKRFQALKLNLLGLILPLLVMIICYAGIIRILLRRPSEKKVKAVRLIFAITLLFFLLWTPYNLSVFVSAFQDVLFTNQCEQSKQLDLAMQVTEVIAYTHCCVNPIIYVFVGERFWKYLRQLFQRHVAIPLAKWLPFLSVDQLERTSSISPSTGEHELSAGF
Source text: (§1) As test antibodies, each hybridoma culture supernatant diluted 10-fold, an existing mouse anti-human CCR1 monoclonal antibody 53504 antibody (R & D Technologies), and a mouse anti-human CCR3 monoclonal antibody 444-11 antibody (MBL) were used.
(§2) Regarding the measurement results, the fluorescence intensity when a certain cell was stained with a certain test antibody (each hybridoma culture supernatant, 53504 antibody or 444-11 antibody) and a secondary antibody was divided by the fluorescence intensity when the cell was stained only with the secondary antibody. […] In Table 2, the results are indicated as A and B, respectively.

human CCR3 = target: T2, human CCR3 (human, UniProt P51677 1-355); test: flow cytometry on CHO-S-hCCR3 cells, hybridoma culture supernatant diluted 10-fold
T2 construct: whole, on cells; also called hCCR3; CHO-S-hCCR3 (expressing cells)
T2 sequence (looked up): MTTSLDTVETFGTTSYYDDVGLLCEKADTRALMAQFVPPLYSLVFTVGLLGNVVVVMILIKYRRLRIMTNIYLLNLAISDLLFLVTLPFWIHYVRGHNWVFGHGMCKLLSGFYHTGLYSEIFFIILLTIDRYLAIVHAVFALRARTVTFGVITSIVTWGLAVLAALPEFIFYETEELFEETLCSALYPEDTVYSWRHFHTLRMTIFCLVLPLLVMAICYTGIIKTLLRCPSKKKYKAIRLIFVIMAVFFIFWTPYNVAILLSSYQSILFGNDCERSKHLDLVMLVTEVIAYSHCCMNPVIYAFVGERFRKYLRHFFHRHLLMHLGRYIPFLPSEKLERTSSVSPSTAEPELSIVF
Source text: as §1, §2

B1: KM5955 antibody (antibody, mouse IgG2a, V domains shown)
VH: EVQLVESGGGLVKPGGSLKLSCAASGFTLRDFGMHWVRQVPEKGLEWVAYISSGRTAISYVDKVKGRFTISRDNAKNTLFLQMTSLRSEDTAMYYCARRPYSKSYAMDYWGQGTSVTVSS
VL: DVVLTQTPLSLPVNIGDQASISCKSIKSLLNSDGFTYLDWYLQKPGQSPQLLIYLVSNRFSGVPDRFSGSGSGTDFTLKIRRVEAEDLGVYYCFQSNYLPLTFGAGTKLELK
notes: mouse IgG2a from hybridoma
[1]
  fluorescence intensity ratio (test antibody + secondary / secondary only): < 10 fold
Human CCR3
  fluorescence intensity ratio (test antibody + secondary / secondary only): < 10 fold
